Earlier results in paper PMC5515885.

Target: Nup153 (Homo sapiens) (UniProt P49790)
Sequence of UniProt P49790 (P49790 2-1475): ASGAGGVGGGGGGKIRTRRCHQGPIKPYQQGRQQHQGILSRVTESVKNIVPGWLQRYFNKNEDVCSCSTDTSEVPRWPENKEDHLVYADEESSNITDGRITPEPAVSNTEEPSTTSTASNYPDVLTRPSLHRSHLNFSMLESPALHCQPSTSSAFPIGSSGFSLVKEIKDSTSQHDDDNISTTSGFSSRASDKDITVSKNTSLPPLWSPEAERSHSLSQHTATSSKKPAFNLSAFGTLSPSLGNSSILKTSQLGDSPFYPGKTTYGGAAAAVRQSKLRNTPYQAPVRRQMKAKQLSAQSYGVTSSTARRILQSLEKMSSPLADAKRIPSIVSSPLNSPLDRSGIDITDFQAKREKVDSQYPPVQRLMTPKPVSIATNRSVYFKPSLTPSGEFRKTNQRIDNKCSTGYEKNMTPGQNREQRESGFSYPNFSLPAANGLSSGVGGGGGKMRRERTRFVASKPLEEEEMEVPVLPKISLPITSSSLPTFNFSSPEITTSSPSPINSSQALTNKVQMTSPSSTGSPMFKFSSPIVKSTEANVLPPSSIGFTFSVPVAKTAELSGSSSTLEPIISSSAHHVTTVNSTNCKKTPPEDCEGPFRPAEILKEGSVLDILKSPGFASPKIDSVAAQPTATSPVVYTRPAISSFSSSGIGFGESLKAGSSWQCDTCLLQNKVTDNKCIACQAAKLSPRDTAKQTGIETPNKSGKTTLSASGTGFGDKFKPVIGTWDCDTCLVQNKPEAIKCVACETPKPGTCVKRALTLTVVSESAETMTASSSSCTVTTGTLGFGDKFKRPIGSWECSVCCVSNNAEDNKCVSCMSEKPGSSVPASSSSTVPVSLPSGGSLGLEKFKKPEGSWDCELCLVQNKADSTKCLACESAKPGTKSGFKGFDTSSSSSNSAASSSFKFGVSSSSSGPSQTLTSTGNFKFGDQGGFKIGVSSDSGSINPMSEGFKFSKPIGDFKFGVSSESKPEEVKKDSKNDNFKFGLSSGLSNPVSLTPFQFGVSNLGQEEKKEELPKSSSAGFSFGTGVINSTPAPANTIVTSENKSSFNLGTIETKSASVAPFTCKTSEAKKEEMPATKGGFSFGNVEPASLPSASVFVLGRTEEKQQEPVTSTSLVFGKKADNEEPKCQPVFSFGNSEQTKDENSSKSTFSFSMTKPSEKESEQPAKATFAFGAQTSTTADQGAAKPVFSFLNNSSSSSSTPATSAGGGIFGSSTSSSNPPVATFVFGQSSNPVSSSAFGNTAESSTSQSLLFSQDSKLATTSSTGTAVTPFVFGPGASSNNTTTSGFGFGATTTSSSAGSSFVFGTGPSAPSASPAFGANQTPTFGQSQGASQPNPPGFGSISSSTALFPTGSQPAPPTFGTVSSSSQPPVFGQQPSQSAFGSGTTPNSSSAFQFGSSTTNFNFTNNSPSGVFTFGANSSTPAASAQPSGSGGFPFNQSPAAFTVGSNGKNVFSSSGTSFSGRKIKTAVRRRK

Kd: 9 nM
Substance: importin beta (from UniProt Q14974)
